Measurements from the supplement of paper PMC9112550, “Optimization of the antimicrobial peptide Bac7 by deep mutational scanning” (BMC Biology, 2022).

Each sequence was assayed on Escherichia coli TOP10 (assay: shrunken log2 fold change of peptide-encoding DNA abundance (4.5 h post-induction vs induction); higher = less antimicrobial activity (less host growth inhibition)). Conditions: time post-induction: 4.5 h; library: site-saturation at positions 5, 18, 19, 20.
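Also: peptides expressed intracellularly from a pBAD plasmid library in pooled LB shake-flask culture, induced with 0.3% L-arabinose, DNA abundance read by NGS, three biological replicates, DESeq2 with apeglm shrinkage.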

Sequence | shrunken log2 fold change
RRIRARPPRLPRPRPRPRWNPRP | 0.00795
RRIRRRPPRLPRPRPRPPQRPRP | 1.64
RRIRDRPPRLPRPRPRPLMCPRP | 0.498
RRIRIRPPRLPRPRPRPHWCPRP | 0.164
RRIRFRPPRLPRPRPRPMLMPRP | -0.0715
RRIRRRPPRLPRPRPRPYAWPRP | 0.157
RRIRPRPPRLPRPRPRPGRRPRP | 0.123
RRIRIRPPRLPRPRPRPFHYPRP | 0.0334
RRIRNRPPRLPRPRPRPPMCPRP | 0.154
RRIRCRPPRLPRPRPRPPQRPRP | 0.94
RRIRFRPPRLPRPRPRPPPFPRP | 0.608
RRIRSRPPRLPRPRPRPSISPRP | -0.584
RRIRLRPPRLPRPRPRPRQYPRP | -0.075
RRIRYRPPRLPRPRPRPIIYPRP | -0.522
RRIRIRPPRLPRPRPRPQFRPRP | -0.234
RRIRPRPPRLPRPRPRPETLPRP | -0.0144
RRIRKRPPRLPRPRPRPVEQPRP | 0.12
RRIRNRPPRLPRPRPRPPKLPRP | 0.0789
RRIRPRPPRLPRPRPRPDFIPRP | -0.233
RRIRNRPPRLPRPRPRPIMYPRP | -0.309
RRIRNRPPRLPRPRPRPIDPPRP | -0.127
RRIRWRPPRLPRPRPRPYKAPRP | 0.0233

Sequence | shrunken log2 fold change
RRIRKRPPRLPRPRPRPYGGPRP | 0.0335
RRIRHRPPRLPRPRPRPQFGPRP | -0.184
RRIRERPPRLPRPRPRPDQMPRP | -0.161
RRIRYRPPRLPRPRPRPPEIPRP | -0.0815
RRIRDRPPRLPRPRPRPKFDPRP | -0.0895
RRIRMRPPRLPRPRPRPARKPRP | 1.29
RRIRCRPPRLPRPRPRPTCEPRP | 0.142
RRIRHRPPRLPRPRPRPPFMPRP | 0.0707
RRIRDRPPRLPRPRPRPFVQPRP | -0.194
RRIRDRPPRLPRPRPRPFDTPRP | -0.329
RRIRARPPRLPRPRPRPAHQPRP | 0.568
RRIRCRPPRLPRPRPRPEPHPRP | 0.489
RRIRWRPPRLPRPRPRPTAQPRP | 0.894
RRIRYRPPRLPRPRPRPCDMPRP | -0.01
RRIRVRPPRLPRPRPRPPRPPRP | 0.648
RRIRTRPPRLPRPRPRPSCPPRP | -0.444
RRIRVRPPRLPRPRPRPAKKPRP | 0.0179
RRIRVRPPRLPRPRPRPEYWPRP | -0.161
RRIRVRPPRLPRPRPRPPVPPRP | 0.35
RRIRQRPPRLPRPRPRPCQCPRP | -0.034
RRIRLRPPRLPRPRPRPSRQPRP | -0.189
RRIRNRPPRLPRPRPRPFCSPRP | -0.0765

Sequence | shrunken log2 fold change
RRIRVRPPRLPRPRPRPQRNPRP | -0.0128
RRIRGRPPRLPRPRPRPIGGPRP | 0.0174
RRIRCRPPRLPRPRPRPQEVPRP | 0.144
RRIRDRPPRLPRPRPRPDAHPRP | -0.036
RRIRHRPPRLPRPRPRPGIDPRP | -0.0302
RRIRARPPRLPRPRPRPAKVPRP | 0.167
RRIRLRPPRLPRPRPRPEYEPRP | 0.0712
RRIRKRPPRLPRPRPRPDYSPRP | -0.168
RRIRDRPPRLPRPRPRPRHTPRP | 0.122
RRIRCRPPRLPRPRPRPPGGPRP | 0.539
RRIRMRPPRLPRPRPRPRYDPRP | 0.185
RRIRNRPPRLPRPRPRPPNRPRP | 2.99
RRIRLRPPRLPRPRPRPYTIPRP | -0.048
RRIRWRPPRLPRPRPRPKWHPRP | 0.184
RRIRVRPPRLPRPRPRPMDVPRP | 0.0265
RRIRYRPPRLPRPRPRPDQYPRP | -0.292
RRIRERPPRLPRPRPRPFLIPRP | -0.728
RRIRSRPPRLPRPRPRPMYWPRP | -0.134
RRIRIRPPRLPRPRPRPYYGPRP | -2.94
RRIRPRPPRLPRPRPRPDMKPRP | -0.417
RRIRARPPRLPRPRPRPRDTPRP | 0.673
RRIRFRPPRLPRPRPRPAWQPRP | 2.26

Sequence | shrunken log2 fold change
RRIRDRPPRLPRPRPRPKTEPRP | -0.0167
RRIRCRPPRLPRPRPRPCQKPRP | -0.103
RRIRNRPPRLPRPRPRPSWYPRP | -0.81
RRIRCRPPRLPRPRPRPWHQPRP | -0.0304
RRIRNRPPRLPRPRPRPESGPRP | -0.0271
RRIRNRPPRLPRPRPRPHALPRP | 0.0517
RRIRPRPPRLPRPRPRPLYMPRP | -0.673
RRIRPRPPRLPRPRPRPPWIPRP | -0.0483
RRIRYRPPRLPRPRPRPHDWPRP | -0.0744
RRIRRRPPRLPRPRPRPSCDPRP | 0.177
RRIRHRPPRLPRPRPRPLQDPRP | -0.0821
RRIRWRPPRLPRPRPRPSKKPRP | 0.0769
RRIRMRPPRLPRPRPRPGLHPRP | 0.412
RRIRERPPRLPRPRPRPDVKPRP | -0.213
RRIRYRPPRLPRPRPRPRRQPRP | -0.232
RRIRRRPPRLPRPRPRPSMTPRP | 0.315
RRIRTRPPRLPRPRPRPFKRPRP | 0.122
RRIRVRPPRLPRPRPRPTASPRP | 0.541
RRIRDRPPRLPRPRPRPPFGPRP | 0.225
RRIRERPPRLPRPRPRPSWLPRP | 0.177
RRIRCRPPRLPRPRPRPRPVPRP | 0.766
RRIRPRPPRLPRPRPRPYEYPRP | -0.314

Sequence | shrunken log2 fold change
RRIRDRPPRLPRPRPRPEMKPRP | 0.0494
RRIRVRPPRLPRPRPRPNMFPRP | -0.103
RRIRLRPPRLPRPRPRPKEIPRP | -0.00121
RRIRVRPPRLPRPRPRPQMHPRP | -0.175
RRIRVRPPRLPRPRPRPEACPRP | 0.11
RRIRQRPPRLPRPRPRPVMWPRP | 0.448
RRIRDRPPRLPRPRPRPTLRPRP | 0.129
RRIRQRPPRLPRPRPRPGSPPRP | -0.232
RRIRKRPPRLPRPRPRPWVCPRP | 0.324
RRIRTRPPRLPRPRPRPSGGPRP | 0.863
RRIRVRPPRLPRPRPRPRMYPRP | -0.882
RRIRARPPRLPRPRPRPMLIPRP | 0.0528
RRIRSRPPRLPRPRPRPMKMPRP | -0.0963
RRIRMRPPRLPRPRPRPNWYPRP | -0.0601
RRIRPRPPRLPRPRPRPYKTPRP | 0.001
RRIRMRPPRLPRPRPRPYYCPRP | -0.603
RRIRSRPPRLPRPRPRPQPQPRP | 0.47
RRIRIRPPRLPRPRPRPVPWPRP | 2.5
RRIRHRPPRLPRPRPRPAQCPRP | 0.101
RRIRHRPPRLPRPRPRPEAEPRP | 0.409
RRIRIRPPRLPRPRPRPDGFPRP | -0.00369
